These results are taken from patent publication US20040081647.

Chain of MMP12 (P39900 106-470): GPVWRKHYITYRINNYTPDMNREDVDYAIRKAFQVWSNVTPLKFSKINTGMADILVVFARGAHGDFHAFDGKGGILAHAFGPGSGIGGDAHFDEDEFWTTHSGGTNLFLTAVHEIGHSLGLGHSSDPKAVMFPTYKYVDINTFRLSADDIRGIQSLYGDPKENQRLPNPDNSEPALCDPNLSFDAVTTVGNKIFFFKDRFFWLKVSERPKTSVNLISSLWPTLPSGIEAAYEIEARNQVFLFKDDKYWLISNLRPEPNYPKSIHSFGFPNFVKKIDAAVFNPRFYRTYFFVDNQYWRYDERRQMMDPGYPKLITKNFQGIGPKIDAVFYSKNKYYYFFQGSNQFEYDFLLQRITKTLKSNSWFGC
Chain of Plasmin (P00747 20-580): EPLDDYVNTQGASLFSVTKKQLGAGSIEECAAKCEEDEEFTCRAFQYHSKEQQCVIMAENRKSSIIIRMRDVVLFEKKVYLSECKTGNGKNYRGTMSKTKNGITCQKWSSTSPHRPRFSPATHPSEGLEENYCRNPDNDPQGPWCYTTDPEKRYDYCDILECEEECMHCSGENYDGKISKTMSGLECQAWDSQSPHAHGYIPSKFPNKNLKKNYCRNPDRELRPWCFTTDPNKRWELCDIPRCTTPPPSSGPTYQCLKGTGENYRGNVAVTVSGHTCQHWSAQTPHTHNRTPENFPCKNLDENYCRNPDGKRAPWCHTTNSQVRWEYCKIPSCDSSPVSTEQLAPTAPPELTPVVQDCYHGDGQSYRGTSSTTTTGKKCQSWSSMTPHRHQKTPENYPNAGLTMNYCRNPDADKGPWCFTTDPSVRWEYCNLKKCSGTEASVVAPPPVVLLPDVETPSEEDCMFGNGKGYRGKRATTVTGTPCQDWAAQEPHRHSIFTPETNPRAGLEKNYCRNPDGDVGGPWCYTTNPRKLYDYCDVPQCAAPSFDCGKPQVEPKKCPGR
Chain of Plasmin (P00747 581-810): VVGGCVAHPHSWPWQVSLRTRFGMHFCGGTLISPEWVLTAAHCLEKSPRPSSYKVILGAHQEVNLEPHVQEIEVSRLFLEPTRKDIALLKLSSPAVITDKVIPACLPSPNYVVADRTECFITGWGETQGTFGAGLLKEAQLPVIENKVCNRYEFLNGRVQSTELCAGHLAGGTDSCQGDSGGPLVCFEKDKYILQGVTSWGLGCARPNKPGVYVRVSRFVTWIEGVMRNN

The target of this series is recombinant human TNFα (RDI) (UniProt P01375).
Chain of recombinant human TNFα (RDI) (P01375 77-233): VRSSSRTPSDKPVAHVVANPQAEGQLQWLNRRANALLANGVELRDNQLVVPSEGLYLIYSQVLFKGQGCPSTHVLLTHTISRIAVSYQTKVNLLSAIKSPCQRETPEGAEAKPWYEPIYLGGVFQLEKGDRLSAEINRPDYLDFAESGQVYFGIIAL
Regarding TACE, the “inactivation of TNFα (L929 cytotoxicity bioassay after overnight digestion)” value (“inactivation of TNFα” for short) is “TACE (under: Proteases that did not inactivate TNF)”.
Take Enterokinase: the “inactivation of TNFα” value is on record as “Enterokinase (under: Proteases that did not inactivate TNF)”.
On to ELASTASE, for which the “log reduction in TNFα activity (L929 cytotoxicity bioassay after overnight digestion)” value (shortened to “log reduction in TNFα activity”) is on record as “ELASTASE (1.45)”.
MT1-MMP: the “log reduction in TNFα activity” value is “MT1-MMP (0.86)”.
The same measure, in the same setting: under Tryptase stands “Tryptase (0.62)”.
As for Urokinase, the “inactivation of TNFα” value is given as “Urokinase (under: Proteases that did not inactivate TNF)”.
Regarding Plasmin, the “inactivation of TNFα” value is on record as “Plasmin (under: Proteases that did not inactivate TNF)”.
The same measure, in the same setting: as for HIV Protease, the entry is “HIV Protease (under: Proteases that did not inactivate TNF)”.
Same read-out and setting: as for Kallikrein5, the entry is “Kallikrein5 (under: Proteases that did not inactivate TNF)”; as for MT5-MMP, “MT5-MMP (under: Proteases that did not inactivate TNF)”.
For Furin, the “inactivation of TNFα” value is listed as “Furin (under: Proteases that did not inactivate TNF)”.
With TRYPSIN, the “log reduction in TNFα activity” value is listed as “TRYPSIN (2.3)”.
As for ADAM10, the “inactivation of TNFα” value is given as “ADAM10 (under: Proteases that did not inactivate TNF)”.
Same read-out and setting: under MMP3 stands “MMP3 (under: Proteases that did not inactivate TNF)”.
MMP12: the “log reduction in TNFα activity” value was “MMP12 (0.65)”.
Still for that read-out and setting: as for CHYMOTRYPSIN, the entry is “CHYMOTRYPSIN (2.74)”.
